We go through two molecules from publication PMC11648230, “Structure–function analysis of tRNA t^6A-catalysis, assembly, and thermostability of Aquifex aeolicus TsaD2B2 tetramer in complex with TsaE” (The Journal of Biological Chemistry, 2024).

Series [1] concerns the molecule itself. Put plainly: SEC; co-purified TsaD–TsaB complexes and variants; elution profiles compared with one another (tetramer against dimer); Superdex 200, after Ni-NTA.
Series [2] deals with T1, Thermotoga maritima TsaDB dimer variant (Thermotoga maritima, UniProt Q9WXZ2 1-327; Q9WZX7 2-206, E20A | D21A | L22A | E24A | S26A | Y27A | T28A | E30A | K31A).
T1 construct: TsaD, Thermotoga maritima, UniProt Q9WXZ2; TsaB, Thermotoga maritima, UniProt Q9WZX7; Preformed complex of m11 and m13; also called T. maritima TsaDB; TmTsaDB; source: E. coli BL21 (DE3) or Rosetta pLysS, co-expressed, purified (Ni-NTA, SEC); copies: 1 + 1
Put plainly: native gel or EMSA; native agarose-glycine gel (1.6%), 15 μg TsaD2B2 or variant and two-fold TsaE; gel and samples with 1 mM ATP and 2 mM MgCl2. The settings on record: both partners purified. For orientation: A gel shift assay detects complexes by their altered migration in electrophoresis.

T1 sequence (Q9WXZ2 whole entry, stated change not applied, one chain of several): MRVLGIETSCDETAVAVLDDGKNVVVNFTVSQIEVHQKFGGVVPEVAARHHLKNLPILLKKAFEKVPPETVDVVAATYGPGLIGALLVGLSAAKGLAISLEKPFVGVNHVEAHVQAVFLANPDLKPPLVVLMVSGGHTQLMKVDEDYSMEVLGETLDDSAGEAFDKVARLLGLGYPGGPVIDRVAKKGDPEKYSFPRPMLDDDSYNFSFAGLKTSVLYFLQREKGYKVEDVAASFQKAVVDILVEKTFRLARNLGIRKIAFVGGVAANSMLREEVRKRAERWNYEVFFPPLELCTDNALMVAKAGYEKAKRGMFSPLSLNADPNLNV

B1: Thermotoga maritima TsaB (natural protein)
chain: NVLALDTSQRIRIGLRKGEDLFEISYTGEKKHAEILPVVVKKLLDELDLKVKDLDVVGVGIGPGGLTGLRVGIATVVGLVSPYDIPVAPLNSFEMTAKSCPADGVVLVARRARKGYHYCAVYLKDKGLNPLKEPSVVSDEELEEITKEFSPKIVLKDDLLISPAVLVEESERLFREKKTIHYYEIEPLYLQKSIAELNWEKKKRG
notes: TsaB, Thermotoga maritima, UniProt Q9WZX7; also called TmTsaB; source: E. coli BL21 (DE3) or Rosetta pLysS, co-expressed with TsaD (pET21a–BC14), purified (Ni-NTA, SEC)
For the molecule B1, in series [1], the binding result is listed as “binds”.

B2: Aquifex aeolicus TsaE (enzyme, UniProt O67011 1-133, looked up)
chain: MELLKEVILESEEDTYKLAEEIAQLLKGSEVICLRGTLGAGKTTFVKALAKALKVKNPSAVRSPTFTLVNEYETDKGKLIHIDLYRVPDFDYSEFIGEGILAVEWEERDKPCDIILEIEILDENKRKVRIYRK
notes: TsaE, Aquifex aeolicus, UniProt O67011; Monomer by SEC; also called AaTsaE; YjeE; source: E. coli BL21 (DE3) or Rosetta pLysS, purified (Ni-NTA, SEC)
As to B2, the binding result in series [2] was “binds”.
